“Also recorded” adds a separate entry of the source.
Key:
[1] = Reductive activity assay towards Keto Easter M (NADPH oxidation, absorbance at 340 nm); assay type: biochemical; conditions: purified enzyme, 0.5 mM NADPH, 1 mM substrate, 30° C.
Protocol: (§1) (1) Principle and definition: The enzyme activity for the reduction of prochiral ketones to chiral alcohols by homo-oligomers was determined with purified enzymes by measuring the decrease in absorbance at 340 nm resulting from the oxidation of NADPH. Protein concentration was determined by Beyotime (Shanghai, China) using bovine serum albumin as a standard.
(§2) (2) Enzyme activity assay conditions (250 ul): 0.5 mmol·L^−1 NADPH, 1 mmol·L^−1 substrate (2,4-dichlorobenzophenone, 2-naphthyl ketone, or [(E)-2-[3-[3-[2-(7-chloro-2-quinolinyl)ethenyl]phenyl]-3-oxopropyl]benzoic acid methyl ester (Keto Easter M).). Incubate the mixture at 30° C. for 2 min, then add appropriate amount of enzyme, and finally measure the absorbance at 340 nm wavelength.
(§3) Formula for calculating enzyme activity is: Enzyme activity (U)=EW×V×10^3/(6220×0.15), and formula for calculating relative enzyme activity is: relative enzyme activity (U/mg)=enzyme activity (U)/protein content (mg), wherein EW is the measured change of absorbance at 340 nm in 1 min; V is the reaction volume (mL); the molar absorption coefficient (L mol^−1 cm^−1) is 6220; and the optical length is 0.15 cm.
(§4) One unit of the enzyme activity is defined as the amount of enzyme catalyzing the formation and oxidation of 1 μmol of NAD(P)H per minute under measurement conditions.
Enzyme activity assay system (250 ul) contained 0.5 mM NADPH, 1 mM substrate (i.e. [(E)-2-[3-[3-[2-(7-chloro-2-quinolinyl)ethenyl]phenyl]-3-oxopropyl]benzoic acid methyl ester (Keto Easter M) and appropriate amount of enzyme. The reaction mixture was incubated at 30° C. for 2 min, the appropriate amount of enzyme was added, and finally the absorption change was scanned at 340 nm wavelength. The calculated relative enzyme activity of SCR/SCR2 and SCR2/SCR3 were 0.86 U/mg and 1.21 U/mg towards [(E)-2-[3-[3-[2-(7-chloro-2-quinolinyl)ethenyl]phenyl]-3-oxopropyl]benzoic acid methyl ester (Keto Easter M), respectively.

[2] = Reductive activity assay towards 2-acetonaphthone (NADPH oxidation, absorbance at 340 nm); assay type: biochemical; conditions: purified enzyme, 0.5 mM NADPH, 1 mM substrate, 30° C.
Protocol: as §1, §2, §3, §4
(§5) Enzyme activity assay system (250 ul) contained 0.5 mM NADPH, 1 mM substrate (i.e. 2-acetonaphthone) and appropriate amount of enzyme. The reaction mixture was incubated at 30° C. for 2 min, the appropriate amount of enzyme was added, and finally the absorption change was scanned at 340 nm wavelength. The calculated relative enzyme activity of SCR/SCR2 was 2.43 U/mg towards 2-acetonaphthone.

[3] = Reductive activity assay towards 2,4-dichlorobenzophenone (NADPH oxidation, absorbance at 340 nm); assay type: biochemical; conditions: purified enzyme, 0.5 mM NADPH, 1 mM substrate, 30° C.
Protocol: as §1, §2, §3, §4
as §5, with “2,4-dichlorobenzophenone)” for “2-acetonaphthone)”, “and SCR2/SCR3 were 4.55 U/mg and 4.42” for “was 2.43”, “2,4-dichlorobenzophenone, respectively.” for “2-acetonaphthone.”

[4] = molecular target: T1, His-SCR3, (S)-carbonyl reductase SCR3 of Candida parapsilosis with N-terminal His-tag, expressed from pET28-His-SCR3
T1 chain: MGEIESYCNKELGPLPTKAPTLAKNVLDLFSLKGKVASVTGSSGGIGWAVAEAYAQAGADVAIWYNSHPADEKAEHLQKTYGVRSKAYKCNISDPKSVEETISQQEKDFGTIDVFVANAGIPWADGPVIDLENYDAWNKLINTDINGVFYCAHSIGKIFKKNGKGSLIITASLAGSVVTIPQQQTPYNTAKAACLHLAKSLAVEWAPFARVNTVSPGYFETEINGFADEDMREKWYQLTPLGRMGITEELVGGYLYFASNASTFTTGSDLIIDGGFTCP

[5] = molecular target: T2, His-SCR2, (S)-carbonyl reductase SCR2 of Candida parapsilosis with N-terminal His-tag, expressed from pET28-His-SCR2
T2 chain: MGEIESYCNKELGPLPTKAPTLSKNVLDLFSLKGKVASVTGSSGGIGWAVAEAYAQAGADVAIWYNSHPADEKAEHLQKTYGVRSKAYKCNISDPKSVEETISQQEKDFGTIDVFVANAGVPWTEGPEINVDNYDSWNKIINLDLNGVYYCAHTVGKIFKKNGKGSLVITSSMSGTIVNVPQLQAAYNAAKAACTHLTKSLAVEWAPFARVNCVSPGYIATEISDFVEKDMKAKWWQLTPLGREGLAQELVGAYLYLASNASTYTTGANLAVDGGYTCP

[6] = molecular target: T3, SCR3, (S)-carbonyl reductase of Candida parapsilosis, as in the hetero-oligomer SCR/SCR3
T3 chain: T1 chain

[7] = molecular target: T4, SCR3, (S)-carbonyl reductase of Candida parapsilosis, as in the hetero-oligomer SCR/SCR3 (Candida parapsilosis, UniProt G8BHG5 1-279); test: method not described for this pair
T4 sequence: T1 chain

B1: SCR3: homo-oligomer (S)-carbonyl reductase from Candida parapsilosis, amino acid sequence SEQ ID NO: 3 (protein, listed as Candida parapsilosis)
chain: T1 chain
relative enzyme activity (specific activity) towards Keto Easter M [1]: no specific activity is observed; also recorded: no enzyme activities were detected | relative enzyme activity (specific activity) towards 2-acetonaphthone [2]: no specific activity is observed; also recorded: no enzyme activities were detected | relative enzyme activity (specific activity) towards 2,4-dichlorobenzophenone [3]: no specific activity is observed; also recorded: no enzyme activities were detected

B2: Strep-SCR2, (S)-carbonyl reductase SCR2 of Candida parapsilosis with N-terminal Strep-tag, expressed from pET21-Strep-SCR2 (protein)
chain: T2 chain
relative enzyme activity (specific activity) towards Keto Easter M [1]: no specific activity is observed; also recorded: no enzyme activities were detected | relative enzyme activity (specific activity) towards 2-acetonaphthone [2]: no specific activity is observed; also recorded: no enzyme activities were detected | relative enzyme activity towards 2,4-dichlorobenzophenone [4]: 4.42 U/mg | relative enzyme activity towards [(E)-2-[3-[3-[2-(7-chloro-2-quinolinyl)ethenyl]phenyl]-3-oxopropyl]benzoic acid methyl ester (Keto Easter M) [4]: 1.21 U/mg | relative enzyme activity (specific activity) towards 2,4-dichlorobenzophenone [3]: no specific activity is observed; also recorded: no enzyme activities were detected

B3: Strep-SCR, (S)-carbonyl reductase SCR of Candida parapsilosis with N-terminal Strep-tag, expressed from pET21-Strep-SCR (protein)
chain: MGEIESYCNKELGPLPTKAPTLSKNVLDLFSLKGKVASVTGSSGGIGWAVAEAYAQAGADVAIWYNSHPADEKAEHLQKTYGVHSKAYKCNISDPKSVEETISQQEKDFGTIDVFVANAGVTWTQGPEIDVDNYDSWNKIISVDLNGVYYCSHNIGKIFKKNGKGSLIITSSISGKIVNIPQLQAPYNTAKAACTHLAKSLAIEWAPFARVNTISPGYIDTDITDFASKDMKAKWWQLTPLGREGLTQELVGGYLYLASNASTFTTGSDVVIDGGYTCP
relative enzyme activity towards 2,4-dichlorobenzophenone [5]: 4.55 U/mg | relative enzyme activity towards 2-acetonaphthone [5]: 2.43 U/mg | relative enzyme activity towards [(E)-2-[3-[3-[2-(7-chloro-2-quinolinyl)ethenyl]phenyl]-3-oxopropyl]benzoic acid methyl ester (Keto Easter M) [5]: 0.86 U/mg

B4: SCR: homo-oligomer (S)-carbonyl reductase from Candida parapsilosis, amino acid sequence SEQ ID NO: 1 (protein, listed as Candida parapsilosis)
chain: B3 chain
relative enzyme activity (specific activity) towards Keto Easter M [1]: no specific activity is observed; also recorded: no enzyme activities were detected | relative enzyme activity (specific activity) towards 2-acetonaphthone [2]: no specific activity is observed; also recorded: no enzyme activities were detected | relative enzyme activity (specific activity) towards 2,4-dichlorobenzophenone [3]: no specific activity is observed; also recorded: no enzyme activities were detected

B5: SCR, (S)-carbonyl reductase of Candida parapsilosis, as in the hetero-oligomer SCR/SCR3 (enzyme)
chain: B3 chain
activities to polyphenyl ketones [6]: also showed some activities to polyphenyl ketones | binding result [7]: binds

Reference: patent publication US10023882B1, “Hetero-oligomers of (S)-carbonyl reductases and their applications in catalyzing reduction of polyphenyl ketones” (Jiangnan University, priority 2017, dated 2018)
